Values belong to the substance of their own block, whether it stands above or below them.
How the values were obtained:
Assay in all cases: SPR
[1] = target: M252Y.Q309T mIgG2a (mouse)
M252F mIgG2a (mouse) = target: M252F mIgG2a (mouse)
M252Y mIgG2a (mouse) = target: M252Y mIgG2a (mouse)
[2] = target: anti-Aβ hIgG4 YEY (human)
[3] = target: anti-BACE1 hIgG1 M252Y / V308P / N434Y (human)
[4] = target: anti-BACE1 hIgG1 M252Y / T307Q / Q311A / N434Y (human)
[5] = target: anti-BACE1 hIgG1 M252Y / Q311A / N434Y / Y436I (human)
[6] = target: anti-BACE1 hIgG1 Q7 (M252Y / Q311A / N434Y / Y436I) (human)
[7] = target: anti-BACE1 hIgG1 Q5 (M252Y / Q311I / N434Y / Y436I) (human)
[8] = target: anti-BACE1 hIgG1 M252Y / Q311I / N434Y / Y436I (human)

Kd [1]: 0.308 µM | Kd (M252F mIgG2a (mouse)): 3.32 µM | Kd (M252Y mIgG2a (mouse)): 0.826 µM
Substance: mouse FcRn (from UniProt Q61559 22-365) (receptor)

Kd [2]: 0.009 µM
Substance: cynomolgus monkey FcRn (from UniProt Q8SPV9 24-365) (receptor)

Kd [3]: 0.127 µM | Kd [4]: 0.333 µM | Kd [5]: 0.006 µM | Kd [6]: 0.006 µM | Kd [7]: 0.252 µM | Kd [8]: 0.252 µM
Substance: human neonatal Fc receptor (hFcRn) (from UniProt P55899 24-365; P61769 21-119)
